Results: IntAct's records for PubMed 22904282

B1: DNA-directed RNA polymerase subunit beta (Mycobacterium tuberculosis (strain ATCC 25618 / P9WGY9 (parent)
chain: MLEGCILADSRQSKTAASPSPSRPQSSSNNSVPGAPNRVSFAKLREPLEVPGLLDVQTDSFEWLIGSPRWRESAAERGDVNPVGGLEEVLYELSPIEDFSGSMSLSFSDPRFDDVKAPVDECKDKDMTYAAPLFVTAEFINNNTGEIKSQTVFMGDFPMMTEKGTFIINGTERVVVSQLVRSPGVYFDETIDKSTDKTLHSVKVIPSRGAWLEFDVDKRDTVGVRIDRKRRQPVTVLLKALGWTSEQIVERFGFSEIMRSTLEKDNTVGTDEALLDIYRKLRPGEPPTKESAQTLLENLFFKEKRYDLARVGRYKVNKKLGLHVGEPITSSTLTEEDVVATIEYLVRLHEGQTTMTVPGGVEVPVETDDIDHFGNRRLRTVGELIQNQIRVGMSRMERVVRERMTTQDVEAITPQTLINIRPVVAAIKEFFGTSQLSQFMDQNNPLSGLTHKRRLSALGPGGLSRERAGLEVRDVHPSHYGRMCPIETPEGPNIGLIGSLSVYARVNPFGFIETPYRKVVDGVVSDEIVYLTADEEDRHVVAQANSPIDADGRFVEPRVLVRRKAGEVEYVPSSEVDYMDVSPRQMVSVATAMIPFLEHDDANRALMGANMQRQAVPLVRSEAPLVGTGMELRAAIDAGDVVVAEESGVIEEVSADYITVMHDNGTRRTYRMRKFARSNHGTCANQCPIVDAGDRVEAGQVIADGPCTDDGEMALGKNLLVAIMPWEGHNYEDAIILSNRLVEEDVLTSIHIEEHEIDARDTKLGAEEITRDIPNISDEVLADLDERGIVRIGAEVRDGDILVGKVTPKGETELTPEERLLRAIFGEKAREVRDTSLKVPHGESGKVIGIRVFSREDEDELPAGVNELVRVYVAQKRKISDGDKLAGRHGNKGVIGKILPVEDMPFLADGTPVDIILNTHGVPRRMNIGQILETHLGWCAHSGWKVDAAKGVPDWAARLPDELLEAQPNAIVSTPVFDGAQEAELQGLLSCTLPNRDGDVLVDADGKAMLFDGRSGEPFPYPVTVGYMYIMKLHHLVDDKIHARSTGPYSMITQQPLGGKAQFGGQRFGEMECWAMQAYGAAYTLQELLTIKSDDTVGRVKVYEAIVKGENIPEPGIPESFKVLLKELQSLCLNVEVLSSDGAAIELREGEDEDLERAAANLGINLSRNESASVEDLA
partner: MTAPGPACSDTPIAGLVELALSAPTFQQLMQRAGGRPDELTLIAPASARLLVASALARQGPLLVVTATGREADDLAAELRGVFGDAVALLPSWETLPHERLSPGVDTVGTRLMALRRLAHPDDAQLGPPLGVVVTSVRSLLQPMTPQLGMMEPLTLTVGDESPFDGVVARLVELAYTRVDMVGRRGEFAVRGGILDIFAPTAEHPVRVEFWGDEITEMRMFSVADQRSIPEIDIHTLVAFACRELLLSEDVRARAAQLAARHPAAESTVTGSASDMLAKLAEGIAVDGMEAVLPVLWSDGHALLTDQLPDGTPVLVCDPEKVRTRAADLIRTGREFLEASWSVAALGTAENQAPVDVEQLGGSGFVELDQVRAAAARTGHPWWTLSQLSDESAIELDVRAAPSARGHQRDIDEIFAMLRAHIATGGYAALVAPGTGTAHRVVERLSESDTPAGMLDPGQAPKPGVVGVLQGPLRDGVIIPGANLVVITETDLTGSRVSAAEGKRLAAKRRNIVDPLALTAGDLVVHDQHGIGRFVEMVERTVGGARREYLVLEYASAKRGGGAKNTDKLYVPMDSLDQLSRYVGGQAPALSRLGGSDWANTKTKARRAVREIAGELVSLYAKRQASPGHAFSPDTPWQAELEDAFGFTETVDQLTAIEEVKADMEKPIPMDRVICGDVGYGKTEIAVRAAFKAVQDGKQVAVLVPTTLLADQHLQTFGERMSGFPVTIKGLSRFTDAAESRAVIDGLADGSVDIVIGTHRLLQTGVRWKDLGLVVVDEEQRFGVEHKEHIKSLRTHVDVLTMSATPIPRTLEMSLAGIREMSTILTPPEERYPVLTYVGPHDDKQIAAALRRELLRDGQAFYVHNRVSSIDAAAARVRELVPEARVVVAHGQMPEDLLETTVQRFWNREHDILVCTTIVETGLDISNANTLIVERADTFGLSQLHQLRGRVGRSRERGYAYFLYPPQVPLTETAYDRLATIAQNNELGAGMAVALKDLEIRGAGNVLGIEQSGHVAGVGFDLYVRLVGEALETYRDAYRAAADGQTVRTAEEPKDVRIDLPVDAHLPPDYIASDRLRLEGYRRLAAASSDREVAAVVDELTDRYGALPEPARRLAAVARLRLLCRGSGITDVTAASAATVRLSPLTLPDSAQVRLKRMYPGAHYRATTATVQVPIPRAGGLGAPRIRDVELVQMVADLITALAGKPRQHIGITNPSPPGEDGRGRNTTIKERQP
B2: RNA polymerase-binding transcription factor CarD (Mycobacterium tuberculosis (strain ATCC 25618 / P9WJG3 (parent)
chain: MIFKVGDTVVYPHHGAALVEAIETRTIKGEQKEYLVLKVAQGDLTVRVPAENAEYVGVRDVVGQEGLDKVFQVLRAPHTEEPTNWSRRYKANLEKLASGDVNKVAEVVRDLWRRDQERGLSAGEKRMLAKARQILVGELALAESTDDAKAETILDEVLAAAS
B3: DNA-directed RNA polymerase subunit beta (Mycobacterium tuberculosis (strain ATCC 25618 / P9WGY9 (parent)
chain: B1 chain

Variants of: B1
Details: with mfd_myctu mfd

Row | Variant | effect of a mutation on the interaction
1 | S149A | decreasing interaction strength
2 | I147A | disrupting interaction
3 | E138R | disrupting interaction

Variants of: B2
Details: with rpob_myctu rpoB

Row | Variant | effect of a mutation on the interaction
4 | MIFKVGDTVVYPHHGAALVEAIETRTIKGEQKEYLVLKVAQGDLTVEVPAENAEYVGVRDVVGQEGLDKVFQVLRAPHTEEPTNWSRRYKANLEKLASGDVNKVAEVVRDLWRRDQERGLSAGEKRMLAKARQILVGELALAESTDDAKAETILDEVLAAAS [R47E] | decreasing interaction strength
5 | MIFKVGDTVVYPHHGAALVEAIETETIKGEQKEYLVLKVAQGDLTVRVPAENAEYVGVRDVVGQEGLDKVFQVLRAPHTEEPTNWSRRYKANLEKLASGDVNKVAEVVRDLWRRDQERGLSAGEKRMLAKARQILVGELALAESTDDAKAETILDEVLAAAS [R25E] | decreasing interaction strength

Variants of: B3
Details: with card_myctu carD

Row | Variant | effect of a mutation on the interaction
6 | S149A | decreasing interaction
7 | E138R | disrupting interaction
8 | I147A | disrupting interaction
